Data on three molecules can be found in publication PMC2917276 (Acta Crystallographica Section D: Biological Crystallography, 2010).

Numbering of substitutions follows the chain as printed.

The assay has as its target T1, Recombinant human IL-13 (human, UniProt P35225).
T1 construct: interleukin-13, human, recombinant; source: bought: R&D Systems (catalog No. 213-IL/CF), reconstituted in PBS pH 7.4
Briefly: SEC; Fab mixed with IL-13 at a Fab:IL-13 molar ratio of 1:1.2, 20 min at 277 K; Superdex 200 10/300 in 20 mM HEPES pH 7.5, 0.1 M NaCl; elution compared with the free Fab. To be noted: both partners purified.

T1 sequence (P35225 35-143): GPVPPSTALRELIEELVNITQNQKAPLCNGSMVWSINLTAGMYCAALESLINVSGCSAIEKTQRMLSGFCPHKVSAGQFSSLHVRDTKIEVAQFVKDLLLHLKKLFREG

B1: H2L6 Fab (Fab, V domains shown)
VH: QVTLKESGPVLVKPTETLTLTCTVSGFSLSTYGMGVGWIRQPPGKALEWLAHIWWDDVKRYNPALKSRLTISKDTSKSQVVLTMTNMDPVDTATYYCARMGSDYDVWFDYWGQGTLVTVSS
VL: EIVLTQSPATLSLSPGERATLSCRASKSISKYLAWYQQKPGQAPRLLIYSGSTLQSGIPARFSGSGSGTDFTLTISSLEPEDFAVYYCQQHNEYPYTFGQGTKLEIK
notes: humanized version of C836 (CDRs grafted into human variable framework segments), human G1 constant domain; humanized version of C836 (CDRs grafted into human variable framework segments), human kappa constant domain
On to B1, for which the binding result is listed as “binds”.

B2: M1295 Fab (Fab, V domains shown)
VH: B1 VH with M34V, M100L
VL: EIVLTQSPATLSLSPGERATLSCRASKSISKYLAWYQQKPGQAPRLLIYSGSTLQSGIPARFSGSGSGTDFTLTISSLEPEDFAVYYCQQHDYPYTFGQGTKLEIK
notes: human G1 constant domain; human kappa constant domain
Consider B2, for which the binding result is reported as “binds”.

B3: C836 Fab (Fab, V domains shown)
VH: QVTLKESGPGILQPSQTLSLTCSFSGFSLSTYGMGVGWIRQPSGKGLEWLAHIWWDDVKRYNPALKSRLTISKDTSGSQVFLKIASVDTSDTATYYCARMGSDYDVWFDYWGQGTLVTVSA
VL: DVQITQSPSYLAASPGETITLNCRASKSISKYLAWYQEKPGKTNKLLIYSGSTLQSGIPSRFSGSGSGTDFTLTISSLEPEDFAMYFCQQHNEYPYTFGGGTKLEIK
notes: mouse VH of hybridoma mAb C836 joined to the human G1 constant region (Fab part); mouse VL of hybridoma mAb C836 joined to the human kappa constant region; Chimeric Fab; also called His-tagged C836 Fab
Consider B3, for which the binding result is recorded as “binds”.
